# Laboratory results from IntAct's records for PubMed 35512704.
# B1: Speckle-type POZ protein (Homo sapiens), O43791 (parent)
# chain: MSRVPSPPPPAEMSSGPVAESWCYTQIKVVKFSYMWTINNFSFCREEMGEVIKSSTFSSGANDKLKWCLRVNPKGLDEESKDYLSLYLLLVSCPKSEVRAKFKFSILNAKGEETKAMESQRAYRFVQGKDWGFKKFIRRDFLLDEANGLLPDDKLTLFCEVSVVQDSVNISGQNTMNMVKVPECRLADELGGLWENSRFTDCCLCVAGQEFQAHKAILAARSPVFSAMFEHEMEESKKNRVEINDVEPEVFKEMMCFIYTGKAPNLDKMADDLLAAADKYALERLKVMCEDALCSNLSVENAAEILILADLHSADQLKTQAVDFINYHASDVLETSGWKSMVVSHPHLVAEAYRSLASAQCPFLGPPRKRLKQS
# Variants of: B1
# Conditions: with hnf1a_human HNF1A
row,Variant,effect of a mutation on the interaction
1,MSRVPSPPPPAEMSSGPVAESWCYTQIKVVKFSYMWTINNFSFCREEMGEVIKSSTFSSGANDKLKWCLRVNPKGLDEESKDYLSLYLLLVSCPKSEVRAKFKFSILNAKGEETKAMESQRAYRFVQGKDWGVKKFIRRDFLLDEANGLLPDDKLTLFCEVSVVQDSVNISGQNTMNMVKVPECRLADELGGLWENSRFTDCCLCVAGQEFQAHKAILAARSPVFSAMFEHEMEESKKNRVEINDVEPEVFKEMMCFIYTGKAPNLDKMADDLLAAADKYALERLKVMCEDALCSNLSVENAAEILILADLHSADQLKTQAVDFINYHASDVLETSGWKSMVVSHPHLVAEAYRSLASAQCPFLGPPRKRLKQS [F133V],with no effect

# Variants of: B1
# Conditions: with igf1r_human IGF1R
row,Variant,effect of a mutation on the interaction
1,MSRVPSPPPPAEMSSGPVAESWCYTQIKVVKFSYMWTINNFSFCREEMGEVIKSSTFSSGANDKLKWCLRVNPKGLDEESKDYLSLYLLLVSCPKSEVRAKFKFSILNAKGEETKAMESQRAYRFVQGKDWGVKKFIRRDFLLDEANGLLPDDKLTLFCEVSVVQDSVNISGQNTMNMVKVPECRLADELGGLWENSRFTDCCLCVAGQEFQAHKAILAARSPVFSAMFEHEMEESKKNRVEINDVEPEVFKEMMCFIYTGKAPNLDKMADDLLAAADKYALERLKVMCEDALCSNLSVENAAEILILADLHSADQLKTQAVDFINYHASDVLETSGWKSMVVSHPHLVAEAYRSLASAQCPFLGPPRKRLKQS [F133V],with no effect

# Variants of: B1
# Conditions: with il7ra_human IL7R
row,Variant,effect of a mutation on the interaction
1,MSRVPSPPPPAEMSSGPVAESWCYTQIKVVKFSYMWTINNFSFCREEMGEVIKSSTFSSGANDKLKWCLRVNPKGLDEESKDYLSLYLLLVSCPKSEVRAKFKFSILNAKGEETKAMESQRAYRFVQGKDWGVKKFIRRDFLLDEANGLLPDDKLTLFCEVSVVQDSVNISGQNTMNMVKVPECRLADELGGLWENSRFTDCCLCVAGQEFQAHKAILAARSPVFSAMFEHEMEESKKNRVEINDVEPEVFKEMMCFIYTGKAPNLDKMADDLLAAADKYALERLKVMCEDALCSNLSVENAAEILILADLHSADQLKTQAVDFINYHASDVLETSGWKSMVVSHPHLVAEAYRSLASAQCPFLGPPRKRLKQS [F133V],with no effect

# Variants of: B1
# Conditions: with int12_human INTS12, Q96CB8
# Chain of int12_human INTS12, Q96CB8 (Q96CB8 whole entry): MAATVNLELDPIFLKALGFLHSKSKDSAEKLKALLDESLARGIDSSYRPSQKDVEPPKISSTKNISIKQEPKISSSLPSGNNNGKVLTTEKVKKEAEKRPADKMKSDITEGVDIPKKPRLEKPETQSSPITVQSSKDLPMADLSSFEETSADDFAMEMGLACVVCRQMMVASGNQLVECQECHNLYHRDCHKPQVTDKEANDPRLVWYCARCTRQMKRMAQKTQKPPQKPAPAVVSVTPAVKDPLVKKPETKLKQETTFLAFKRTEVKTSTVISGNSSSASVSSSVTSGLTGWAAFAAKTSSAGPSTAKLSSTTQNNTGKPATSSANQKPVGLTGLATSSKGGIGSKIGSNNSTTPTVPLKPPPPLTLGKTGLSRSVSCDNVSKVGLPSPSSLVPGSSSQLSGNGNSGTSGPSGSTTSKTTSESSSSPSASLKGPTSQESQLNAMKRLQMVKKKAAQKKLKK
row,Variant,effect of a mutation on the interaction
1,MSRVPSPPPPAEMSSGPVAESWCYTQIKVVKFSYMWTINNFSFCREEMGEVIKSSTFSSGANDKLKWCLRVNPKGLDEESKDYLSLYLLLVSCPKSEVRAKFKFSILNAKGEETKAMESQRAYRFVQGKDWGVKKFIRRDFLLDEANGLLPDDKLTLFCEVSVVQDSVNISGQNTMNMVKVPECRLADELGGLWENSRFTDCCLCVAGQEFQAHKAILAARSPVFSAMFEHEMEESKKNRVEINDVEPEVFKEMMCFIYTGKAPNLDKMADDLLAAADKYALERLKVMCEDALCSNLSVENAAEILILADLHSADQLKTQAVDFINYHASDVLETSGWKSMVVSHPHLVAEAYRSLASAQCPFLGPPRKRLKQS [F133V],with no effect

# Variants of: B1
# Conditions: with ist1_human IST1, P53990
# Chain of ist1_human IST1, P53990 (P53990 whole entry): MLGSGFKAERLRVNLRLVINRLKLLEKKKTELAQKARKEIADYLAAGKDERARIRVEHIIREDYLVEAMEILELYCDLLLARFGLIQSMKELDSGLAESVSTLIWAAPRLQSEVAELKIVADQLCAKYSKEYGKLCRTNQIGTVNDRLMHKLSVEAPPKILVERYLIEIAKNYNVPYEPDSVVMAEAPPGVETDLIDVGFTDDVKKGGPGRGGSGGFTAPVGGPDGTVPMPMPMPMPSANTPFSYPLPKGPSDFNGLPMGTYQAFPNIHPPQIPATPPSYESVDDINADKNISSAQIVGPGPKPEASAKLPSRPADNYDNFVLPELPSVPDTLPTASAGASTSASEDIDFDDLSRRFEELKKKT
row,Variant,effect of a mutation on the interaction
1,MSRVPSPPPPAEMSSGPVAESWCYTQIKVVKFSYMWTINNFSFCREEMGEVIKSSTFSSGANDKLKWCLRVNPKGLDEESKDYLSLYLLLVSCPKSEVRAKFKFSILNAKGEETKAMESQRAYRFVQGKDWGVKKFIRRDFLLDEANGLLPDDKLTLFCEVSVVQDSVNISGQNTMNMVKVPECRLADELGGLWENSRFTDCCLCVAGQEFQAHKAILAARSPVFSAMFEHEMEESKKNRVEINDVEPEVFKEMMCFIYTGKAPNLDKMADDLLAAADKYALERLKVMCEDALCSNLSVENAAEILILADLHSADQLKTQAVDFINYHASDVLETSGWKSMVVSHPHLVAEAYRSLASAQCPFLGPPRKRLKQS [F133V],with no effect

# Variants of: B1
# Conditions: with jak1_human JAK1, P23458
# Chain of jak1_human JAK1, P23458 (P23458 whole entry): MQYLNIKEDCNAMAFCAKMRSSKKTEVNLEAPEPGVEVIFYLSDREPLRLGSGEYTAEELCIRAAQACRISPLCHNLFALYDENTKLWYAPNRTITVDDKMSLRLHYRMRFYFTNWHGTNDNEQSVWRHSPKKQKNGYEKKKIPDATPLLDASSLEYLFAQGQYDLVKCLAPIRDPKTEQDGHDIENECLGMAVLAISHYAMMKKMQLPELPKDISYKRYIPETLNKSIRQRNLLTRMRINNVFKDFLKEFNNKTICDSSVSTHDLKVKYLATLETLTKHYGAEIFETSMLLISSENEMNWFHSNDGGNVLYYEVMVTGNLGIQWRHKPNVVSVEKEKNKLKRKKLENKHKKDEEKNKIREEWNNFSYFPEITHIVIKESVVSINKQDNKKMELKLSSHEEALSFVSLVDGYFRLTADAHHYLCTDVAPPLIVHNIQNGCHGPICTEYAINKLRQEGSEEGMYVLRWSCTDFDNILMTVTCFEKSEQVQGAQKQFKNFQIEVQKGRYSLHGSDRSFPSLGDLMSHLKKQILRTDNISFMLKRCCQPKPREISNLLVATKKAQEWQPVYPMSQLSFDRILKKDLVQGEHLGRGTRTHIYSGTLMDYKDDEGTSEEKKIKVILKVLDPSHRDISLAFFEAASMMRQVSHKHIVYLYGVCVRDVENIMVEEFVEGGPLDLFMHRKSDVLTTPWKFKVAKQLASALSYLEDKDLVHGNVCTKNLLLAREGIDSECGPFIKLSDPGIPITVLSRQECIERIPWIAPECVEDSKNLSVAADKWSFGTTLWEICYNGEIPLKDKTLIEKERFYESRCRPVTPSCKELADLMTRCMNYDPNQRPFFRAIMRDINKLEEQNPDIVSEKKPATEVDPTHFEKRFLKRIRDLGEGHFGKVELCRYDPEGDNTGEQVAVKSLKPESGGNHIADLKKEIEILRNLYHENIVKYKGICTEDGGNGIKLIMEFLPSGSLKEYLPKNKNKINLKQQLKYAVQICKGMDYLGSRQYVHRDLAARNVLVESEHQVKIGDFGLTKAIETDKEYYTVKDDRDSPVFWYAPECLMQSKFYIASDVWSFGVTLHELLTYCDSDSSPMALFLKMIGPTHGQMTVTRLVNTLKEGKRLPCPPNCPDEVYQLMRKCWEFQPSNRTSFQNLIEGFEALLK
row,Variant,effect of a mutation on the interaction
1,MSRVPSPPPPAEMSSGPVAESWCYTQIKVVKFSYMWTINNFSFCREEMGEVIKSSTFSSGANDKLKWCLRVNPKGLDEESKDYLSLYLLLVSCPKSEVRAKFKFSILNAKGEETKAMESQRAYRFVQGKDWGVKKFIRRDFLLDEANGLLPDDKLTLFCEVSVVQDSVNISGQNTMNMVKVPECRLADELGGLWENSRFTDCCLCVAGQEFQAHKAILAARSPVFSAMFEHEMEESKKNRVEINDVEPEVFKEMMCFIYTGKAPNLDKMADDLLAAADKYALERLKVMCEDALCSNLSVENAAEILILADLHSADQLKTQAVDFINYHASDVLETSGWKSMVVSHPHLVAEAYRSLASAQCPFLGPPRKRLKQS [F133V],with no effect

# Variants of: B1
# Conditions: with jak3_human JAK3, P52333
# Chain of jak3_human JAK3, P52333 (P52333 whole entry): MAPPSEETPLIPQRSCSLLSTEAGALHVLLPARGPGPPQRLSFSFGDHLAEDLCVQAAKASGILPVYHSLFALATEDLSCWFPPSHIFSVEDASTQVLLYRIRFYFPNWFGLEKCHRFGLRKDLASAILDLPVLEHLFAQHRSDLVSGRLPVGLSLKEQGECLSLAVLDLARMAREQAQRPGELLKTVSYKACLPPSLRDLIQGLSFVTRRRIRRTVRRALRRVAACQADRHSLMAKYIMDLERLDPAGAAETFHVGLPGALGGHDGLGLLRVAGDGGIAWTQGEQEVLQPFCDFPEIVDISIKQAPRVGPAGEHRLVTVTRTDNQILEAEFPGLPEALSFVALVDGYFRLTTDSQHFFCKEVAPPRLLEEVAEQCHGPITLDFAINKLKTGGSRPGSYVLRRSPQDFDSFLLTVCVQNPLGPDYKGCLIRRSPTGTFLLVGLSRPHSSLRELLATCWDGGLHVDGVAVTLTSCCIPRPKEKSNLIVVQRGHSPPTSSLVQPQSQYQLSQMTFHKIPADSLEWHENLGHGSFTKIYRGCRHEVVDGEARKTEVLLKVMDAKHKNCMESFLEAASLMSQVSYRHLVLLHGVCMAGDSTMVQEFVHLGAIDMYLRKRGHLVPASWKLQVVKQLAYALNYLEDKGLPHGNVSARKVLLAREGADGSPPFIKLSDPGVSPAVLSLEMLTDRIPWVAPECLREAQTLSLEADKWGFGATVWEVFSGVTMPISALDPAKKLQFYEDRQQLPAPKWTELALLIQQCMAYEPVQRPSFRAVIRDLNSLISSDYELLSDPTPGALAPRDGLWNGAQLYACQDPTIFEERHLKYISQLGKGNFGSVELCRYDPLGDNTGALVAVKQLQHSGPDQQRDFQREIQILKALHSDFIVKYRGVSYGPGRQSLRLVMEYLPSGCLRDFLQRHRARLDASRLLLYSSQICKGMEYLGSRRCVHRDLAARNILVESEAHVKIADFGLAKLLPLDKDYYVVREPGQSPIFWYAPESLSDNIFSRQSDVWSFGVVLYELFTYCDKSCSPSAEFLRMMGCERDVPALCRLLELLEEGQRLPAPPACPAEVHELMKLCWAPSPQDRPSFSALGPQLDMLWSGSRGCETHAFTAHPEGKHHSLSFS
row,Variant,effect of a mutation on the interaction
1,MSRVPSPPPPAEMSSGPVAESWCYTQIKVVKFSYMWTINNFSFCREEMGEVIKSSTFSSGANDKLKWCLRVNPKGLDEESKDYLSLYLLLVSCPKSEVRAKFKFSILNAKGEETKAMESQRAYRFVQGKDWGVKKFIRRDFLLDEANGLLPDDKLTLFCEVSVVQDSVNISGQNTMNMVKVPECRLADELGGLWENSRFTDCCLCVAGQEFQAHKAILAARSPVFSAMFEHEMEESKKNRVEINDVEPEVFKEMMCFIYTGKAPNLDKMADDLLAAADKYALERLKVMCEDALCSNLSVENAAEILILADLHSADQLKTQAVDFINYHASDVLETSGWKSMVVSHPHLVAEAYRSLASAQCPFLGPPRKRLKQS [F133V],with no effect

# Variants of: B1
# Conditions: with kat2a_human KAT2A
row,Variant,effect of a mutation on the interaction
1,MSRVPSPPPPAEMSSGPVAESWCYTQIKVVKFSYMWTINNFSFCREEMGEVIKSSTFSSGANDKLKWCLRVNPKGLDEESKDYLSLYLLLVSCPKSEVRAKFKFSILNAKGEETKAMESQRAYRFVQGKDWGVKKFIRRDFLLDEANGLLPDDKLTLFCEVSVVQDSVNISGQNTMNMVKVPECRLADELGGLWENSRFTDCCLCVAGQEFQAHKAILAARSPVFSAMFEHEMEESKKNRVEINDVEPEVFKEMMCFIYTGKAPNLDKMADDLLAAADKYALERLKVMCEDALCSNLSVENAAEILILADLHSADQLKTQAVDFINYHASDVLETSGWKSMVVSHPHLVAEAYRSLASAQCPFLGPPRKRLKQS [F133V],with no effect

# Variants of: B1
# Conditions: with kdm5a_human KDM5A
row,Variant,effect of a mutation on the interaction
1,MSRVPSPPPPAEMSSGPVAESWCYTQIKVVKFSYMWTINNFSFCREEMGEVIKSSTFSSGANDKLKWCLRVNPKGLDEESKDYLSLYLLLVSCPKSEVRAKFKFSILNAKGEETKAMESQRAYRFVQGKDWGVKKFIRRDFLLDEANGLLPDDKLTLFCEVSVVQDSVNISGQNTMNMVKVPECRLADELGGLWENSRFTDCCLCVAGQEFQAHKAILAARSPVFSAMFEHEMEESKKNRVEINDVEPEVFKEMMCFIYTGKAPNLDKMADDLLAAADKYALERLKVMCEDALCSNLSVENAAEILILADLHSADQLKTQAVDFINYHASDVLETSGWKSMVVSHPHLVAEAYRSLASAQCPFLGPPRKRLKQS [F133V],with no effect

# Variants of: B1
# Conditions: with kdm5c_human KDM5C
row,Variant,effect of a mutation on the interaction
1,MSRVPSPPPPAEMSSGPVAESWCYTQIKVVKFSYMWTINNFSFCREEMGEVIKSSTFSSGANDKLKWCLRVNPKGLDEESKDYLSLYLLLVSCPKSEVRAKFKFSILNAKGEETKAMESQRAYRFVQGKDWGVKKFIRRDFLLDEANGLLPDDKLTLFCEVSVVQDSVNISGQNTMNMVKVPECRLADELGGLWENSRFTDCCLCVAGQEFQAHKAILAARSPVFSAMFEHEMEESKKNRVEINDVEPEVFKEMMCFIYTGKAPNLDKMADDLLAAADKYALERLKVMCEDALCSNLSVENAAEILILADLHSADQLKTQAVDFINYHASDVLETSGWKSMVVSHPHLVAEAYRSLASAQCPFLGPPRKRLKQS [F133V],with no effect

# Variants of: B1
# Conditions: with vgfr2_human KDR
row,Variant,effect of a mutation on the interaction
1,MSRVPSPPPPAEMSSGPVAESWCYTQIKVVKFSYMWTINNFSFCREEMGEVIKSSTFSSGANDKLKWCLRVNPKGLDEESKDYLSLYLLLVSCPKSEVRAKFKFSILNAKGEETKAMESQRAYRFVQGKDWGVKKFIRRDFLLDEANGLLPDDKLTLFCEVSVVQDSVNISGQNTMNMVKVPECRLADELGGLWENSRFTDCCLCVAGQEFQAHKAILAARSPVFSAMFEHEMEESKKNRVEINDVEPEVFKEMMCFIYTGKAPNLDKMADDLLAAADKYALERLKVMCEDALCSNLSVENAAEILILADLHSADQLKTQAVDFINYHASDVLETSGWKSMVVSHPHLVAEAYRSLASAQCPFLGPPRKRLKQS [F133V],with no effect

# Variants of: B1
# Conditions: with lims1_human LIMS1, P48059
row,Variant,effect of a mutation on the interaction
1,MSRVPSPPPPAEMSSGPVAESWCYTQIKVVKFSYMWTINNFSFCREEMGEVIKSSTFSSGANDKLKWCLRVNPKGLDEESKDYLSLYLLLVSCPKSEVRAKFKFSILNAKGEETKAMESQRAYRFVQGKDWGVKKFIRRDFLLDEANGLLPDDKLTLFCEVSVVQDSVNISGQNTMNMVKVPECRLADELGGLWENSRFTDCCLCVAGQEFQAHKAILAARSPVFSAMFEHEMEESKKNRVEINDVEPEVFKEMMCFIYTGKAPNLDKMADDLLAAADKYALERLKVMCEDALCSNLSVENAAEILILADLHSADQLKTQAVDFINYHASDVLETSGWKSMVVSHPHLVAEAYRSLASAQCPFLGPPRKRLKQS [F133V],with no effect

# Variants of: B1
# Conditions: with maga6_human MAGEA6, P43360
row,Variant,effect of a mutation on the interaction
1,MSRVPSPPPPAEMSSGPVAESWCYTQIKVVKFSYMWTINNFSFCREEMGEVIKSSTFSSGANDKLKWCLRVNPKGLDEESKDYLSLYLLLVSCPKSEVRAKFKFSILNAKGEETKAMESQRAYRFVQGKDWGVKKFIRRDFLLDEANGLLPDDKLTLFCEVSVVQDSVNISGQNTMNMVKVPECRLADELGGLWENSRFTDCCLCVAGQEFQAHKAILAARSPVFSAMFEHEMEESKKNRVEINDVEPEVFKEMMCFIYTGKAPNLDKMADDLLAAADKYALERLKVMCEDALCSNLSVENAAEILILADLHSADQLKTQAVDFINYHASDVLETSGWKSMVVSHPHLVAEAYRSLASAQCPFLGPPRKRLKQS [F133V],with no effect

# Variants of: B1
# Conditions: with m3k1_human MAP3K1, Q13233
# Chain of m3k1_human MAP3K1, Q13233 (Q13233 whole entry): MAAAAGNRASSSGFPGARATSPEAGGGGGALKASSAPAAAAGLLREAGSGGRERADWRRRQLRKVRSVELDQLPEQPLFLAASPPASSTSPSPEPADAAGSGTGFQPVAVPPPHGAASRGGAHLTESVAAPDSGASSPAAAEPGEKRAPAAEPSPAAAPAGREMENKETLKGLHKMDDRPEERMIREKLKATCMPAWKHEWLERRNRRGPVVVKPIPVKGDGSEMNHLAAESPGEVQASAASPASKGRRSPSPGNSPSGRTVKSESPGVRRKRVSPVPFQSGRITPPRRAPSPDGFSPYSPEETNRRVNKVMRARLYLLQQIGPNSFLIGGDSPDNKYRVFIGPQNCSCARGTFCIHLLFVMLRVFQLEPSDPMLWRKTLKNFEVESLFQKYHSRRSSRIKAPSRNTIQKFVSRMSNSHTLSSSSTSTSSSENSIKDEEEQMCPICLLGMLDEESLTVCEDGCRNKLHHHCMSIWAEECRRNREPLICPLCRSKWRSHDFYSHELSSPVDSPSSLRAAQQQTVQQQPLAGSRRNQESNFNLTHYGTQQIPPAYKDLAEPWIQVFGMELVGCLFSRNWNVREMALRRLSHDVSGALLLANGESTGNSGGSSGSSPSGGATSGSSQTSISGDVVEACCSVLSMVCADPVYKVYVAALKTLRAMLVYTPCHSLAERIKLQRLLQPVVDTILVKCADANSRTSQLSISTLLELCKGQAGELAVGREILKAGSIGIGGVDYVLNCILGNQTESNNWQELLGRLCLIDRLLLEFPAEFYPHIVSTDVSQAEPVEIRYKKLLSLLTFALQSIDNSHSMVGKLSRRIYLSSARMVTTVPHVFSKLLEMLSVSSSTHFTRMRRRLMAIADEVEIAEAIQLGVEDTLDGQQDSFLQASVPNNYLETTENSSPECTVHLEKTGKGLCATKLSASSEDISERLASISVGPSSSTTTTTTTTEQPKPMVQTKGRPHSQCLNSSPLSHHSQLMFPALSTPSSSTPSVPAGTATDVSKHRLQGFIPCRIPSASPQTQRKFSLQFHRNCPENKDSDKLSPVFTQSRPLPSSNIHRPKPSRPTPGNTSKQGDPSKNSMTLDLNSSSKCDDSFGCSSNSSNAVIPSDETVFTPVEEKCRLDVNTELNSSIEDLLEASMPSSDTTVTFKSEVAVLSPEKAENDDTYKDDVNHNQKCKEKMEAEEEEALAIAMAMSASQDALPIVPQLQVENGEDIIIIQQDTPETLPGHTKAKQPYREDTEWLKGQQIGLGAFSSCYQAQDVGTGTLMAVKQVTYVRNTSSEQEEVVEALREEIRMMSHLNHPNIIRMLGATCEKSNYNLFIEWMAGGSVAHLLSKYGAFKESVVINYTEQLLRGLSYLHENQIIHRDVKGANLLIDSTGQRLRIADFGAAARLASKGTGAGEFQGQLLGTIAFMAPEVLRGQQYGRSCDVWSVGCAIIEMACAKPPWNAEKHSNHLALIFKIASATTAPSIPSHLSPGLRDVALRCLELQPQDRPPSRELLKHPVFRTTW
row,Variant,effect of a mutation on the interaction
1,MSRVPSPPPPAEMSSGPVAESWCYTQIKVVKFSYMWTINNFSFCREEMGEVIKSSTFSSGANDKLKWCLRVNPKGLDEESKDYLSLYLLLVSCPKSEVRAKFKFSILNAKGEETKAMESQRAYRFVQGKDWGVKKFIRRDFLLDEANGLLPDDKLTLFCEVSVVQDSVNISGQNTMNMVKVPECRLADELGGLWENSRFTDCCLCVAGQEFQAHKAILAARSPVFSAMFEHEMEESKKNRVEINDVEPEVFKEMMCFIYTGKAPNLDKMADDLLAAADKYALERLKVMCEDALCSNLSVENAAEILILADLHSADQLKTQAVDFINYHASDVLETSGWKSMVVSHPHLVAEAYRSLASAQCPFLGPPRKRLKQS [F133V],with no effect

# Variants of: B1
# Conditions: with mk10_human MAPK10, P53779
# Chain of mk10_human MAPK10, P53779 (P53779 whole entry): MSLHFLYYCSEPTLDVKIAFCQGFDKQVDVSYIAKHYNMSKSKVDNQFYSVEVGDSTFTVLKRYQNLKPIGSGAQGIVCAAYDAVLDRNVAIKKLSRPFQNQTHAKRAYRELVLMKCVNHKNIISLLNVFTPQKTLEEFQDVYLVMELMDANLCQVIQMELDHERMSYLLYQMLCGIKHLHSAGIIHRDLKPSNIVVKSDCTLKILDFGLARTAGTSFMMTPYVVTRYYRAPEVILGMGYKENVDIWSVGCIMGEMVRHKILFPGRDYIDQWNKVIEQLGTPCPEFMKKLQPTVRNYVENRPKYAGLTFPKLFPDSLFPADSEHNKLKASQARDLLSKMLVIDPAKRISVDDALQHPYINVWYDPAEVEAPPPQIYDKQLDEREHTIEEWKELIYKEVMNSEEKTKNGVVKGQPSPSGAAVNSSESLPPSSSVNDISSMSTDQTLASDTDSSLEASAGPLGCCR
row,Variant,effect of a mutation on the interaction
1,MSRVPSPPPPAEMSSGPVAESWCYTQIKVVKFSYMWTINNFSFCREEMGEVIKSSTFSSGANDKLKWCLRVNPKGLDEESKDYLSLYLLLVSCPKSEVRAKFKFSILNAKGEETKAMESQRAYRFVQGKDWGVKKFIRRDFLLDEANGLLPDDKLTLFCEVSVVQDSVNISGQNTMNMVKVPECRLADELGGLWENSRFTDCCLCVAGQEFQAHKAILAARSPVFSAMFEHEMEESKKNRVEINDVEPEVFKEMMCFIYTGKAPNLDKMADDLLAAADKYALERLKVMCEDALCSNLSVENAAEILILADLHSADQLKTQAVDFINYHASDVLETSGWKSMVVSHPHLVAEAYRSLASAQCPFLGPPRKRLKQS [F133V],with no effect
